The results in this text go back to article PMC5458144 (2017).

As usually defined, the Kd is the concentration at which binding is half-saturated.

The assay concerns the target CRL4A-CRBN (Homo sapiens, UniProt Q96SW2). The experiment in a line: TR-FRET. For orientation: Time-resolved FRET reads energy transfer from a long-lived donor to a nearby acceptor.

Chain of CRL4A-CRBN (Q96SW2 whole entry, chain 1 of 4): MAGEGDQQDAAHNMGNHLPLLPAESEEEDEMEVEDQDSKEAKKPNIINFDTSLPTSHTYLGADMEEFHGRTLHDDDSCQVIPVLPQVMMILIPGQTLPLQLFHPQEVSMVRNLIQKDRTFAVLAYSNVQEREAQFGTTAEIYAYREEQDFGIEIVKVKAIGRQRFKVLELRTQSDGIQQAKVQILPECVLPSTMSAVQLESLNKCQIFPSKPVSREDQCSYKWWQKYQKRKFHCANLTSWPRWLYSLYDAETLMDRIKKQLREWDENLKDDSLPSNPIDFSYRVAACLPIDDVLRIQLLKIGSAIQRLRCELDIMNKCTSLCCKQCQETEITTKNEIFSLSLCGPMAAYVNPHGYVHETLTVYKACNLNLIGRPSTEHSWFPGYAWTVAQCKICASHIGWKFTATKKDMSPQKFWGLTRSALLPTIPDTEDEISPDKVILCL
Chain of CRL4A-CRBN (Q16531 2-1140, chain 2 of 4, further chain): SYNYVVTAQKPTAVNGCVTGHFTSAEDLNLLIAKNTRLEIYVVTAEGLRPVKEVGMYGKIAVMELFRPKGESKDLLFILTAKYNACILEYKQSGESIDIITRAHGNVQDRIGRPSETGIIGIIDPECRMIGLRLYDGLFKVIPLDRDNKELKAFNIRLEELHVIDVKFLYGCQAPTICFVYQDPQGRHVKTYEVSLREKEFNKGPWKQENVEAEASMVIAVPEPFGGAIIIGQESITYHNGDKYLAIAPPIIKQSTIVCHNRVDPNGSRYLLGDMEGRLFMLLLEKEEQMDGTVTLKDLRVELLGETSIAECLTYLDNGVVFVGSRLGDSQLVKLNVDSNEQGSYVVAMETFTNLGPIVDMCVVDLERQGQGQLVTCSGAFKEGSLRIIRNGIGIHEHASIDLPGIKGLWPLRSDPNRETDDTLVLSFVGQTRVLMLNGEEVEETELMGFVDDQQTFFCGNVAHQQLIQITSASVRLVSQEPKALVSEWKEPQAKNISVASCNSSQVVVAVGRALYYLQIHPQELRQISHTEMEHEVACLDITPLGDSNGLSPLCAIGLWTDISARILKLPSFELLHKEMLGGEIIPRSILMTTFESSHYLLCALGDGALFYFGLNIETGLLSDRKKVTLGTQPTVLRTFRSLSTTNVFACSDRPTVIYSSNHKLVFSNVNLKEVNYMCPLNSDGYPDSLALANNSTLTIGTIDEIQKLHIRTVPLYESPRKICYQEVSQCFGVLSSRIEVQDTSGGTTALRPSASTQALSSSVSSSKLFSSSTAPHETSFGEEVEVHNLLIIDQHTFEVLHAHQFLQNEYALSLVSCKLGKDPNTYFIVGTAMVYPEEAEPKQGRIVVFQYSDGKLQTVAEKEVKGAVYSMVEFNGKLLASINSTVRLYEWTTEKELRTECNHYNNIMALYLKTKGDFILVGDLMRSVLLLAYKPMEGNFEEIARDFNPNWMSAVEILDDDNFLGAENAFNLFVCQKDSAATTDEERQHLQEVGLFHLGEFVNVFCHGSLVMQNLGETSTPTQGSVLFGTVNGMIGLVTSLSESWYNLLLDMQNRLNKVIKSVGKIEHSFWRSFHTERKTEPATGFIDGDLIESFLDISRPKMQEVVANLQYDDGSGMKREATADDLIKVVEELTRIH
Chain of CRL4A-CRBN (Q13619 whole entry, chain 3 of 4, further chain): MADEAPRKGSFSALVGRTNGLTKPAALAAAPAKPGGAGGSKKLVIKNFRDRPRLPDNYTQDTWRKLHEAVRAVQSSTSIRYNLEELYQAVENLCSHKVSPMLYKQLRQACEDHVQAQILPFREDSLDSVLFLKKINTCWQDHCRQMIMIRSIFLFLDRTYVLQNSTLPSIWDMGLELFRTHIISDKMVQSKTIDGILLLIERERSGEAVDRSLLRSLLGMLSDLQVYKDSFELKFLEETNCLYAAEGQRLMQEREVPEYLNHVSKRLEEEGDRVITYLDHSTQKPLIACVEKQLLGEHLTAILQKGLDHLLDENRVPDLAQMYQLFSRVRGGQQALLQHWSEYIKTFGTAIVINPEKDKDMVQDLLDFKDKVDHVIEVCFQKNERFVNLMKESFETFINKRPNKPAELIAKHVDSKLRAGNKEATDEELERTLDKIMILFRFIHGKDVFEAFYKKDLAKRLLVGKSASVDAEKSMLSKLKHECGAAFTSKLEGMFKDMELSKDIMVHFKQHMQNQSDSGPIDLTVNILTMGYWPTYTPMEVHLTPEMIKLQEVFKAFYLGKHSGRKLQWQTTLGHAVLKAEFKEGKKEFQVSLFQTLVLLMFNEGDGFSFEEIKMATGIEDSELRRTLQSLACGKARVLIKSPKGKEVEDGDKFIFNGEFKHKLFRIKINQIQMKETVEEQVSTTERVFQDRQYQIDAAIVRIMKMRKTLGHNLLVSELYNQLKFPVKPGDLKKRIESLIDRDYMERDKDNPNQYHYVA
Chain of CRL4A-CRBN (P62877 2-108, chain 4 of 4, further chain): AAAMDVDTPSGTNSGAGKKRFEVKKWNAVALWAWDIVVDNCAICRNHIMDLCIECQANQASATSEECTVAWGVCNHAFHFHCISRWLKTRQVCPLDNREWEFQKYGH

B1: ZFP91 (protein)
chain: PGETEEPRPPEQQDQEGGEAAKAAPEEPQQRPPEAVAAAPAGTTSSRVLRGGRDRGRAAAAAAAAAVSRRRKAEYPRRRRSSPSARPPDVPGQQPQAAKSPSPVQGKKSPRLLCIEKVTTDKDPKEEKEEEDDSALPQEVSIAASRPSRGWRSSRTSVSRHRDTENTRSSRSKTGSLQLICKSEPNTDQLDYDVGEEHQSPGGISSEEEEEEEEEMLISEEEIPFKDDPRDETYKPHLERETPKPRRKSGKVKEEKEKKEIKVEVEVEVKEEENEIREDEEPPRKRGRRRKDDKSPRLPKRRKKPPIQYVRCEMEGCGTVLAHPRYLQHHIKYQHLLKKKYVCPHPSCGRLFRLQKQLLRHAKHHTDQRDYICEYCARAFKSSHNLAVHRMIHTGEKPLQCEICGFTCRQKASLNWHMKKHDADSFYQFSCNICGKKFEKKDSVVAHKAKSHPEVLIAEALAANAGALITSTDILGTNPESLTQPSDGQGLPLLPEPLGNSTSGECLLLEAEGMSKSYCSGTERVSLMADGKIFVGSGSSGGTEGLVMNSDILGATTEVLIEDSDSAGP
modifications: lenalidomide
In turn, B1 showed a Kd of 107 nM.
